# Test results reported in US20110105733A1 (Ablynx, published 2011).
# T1: human Notch-3 (human, UniProt Q9UM47 40-467, limits assumed)
# T1 construct: Construct not described
# T1 sequence (looked up): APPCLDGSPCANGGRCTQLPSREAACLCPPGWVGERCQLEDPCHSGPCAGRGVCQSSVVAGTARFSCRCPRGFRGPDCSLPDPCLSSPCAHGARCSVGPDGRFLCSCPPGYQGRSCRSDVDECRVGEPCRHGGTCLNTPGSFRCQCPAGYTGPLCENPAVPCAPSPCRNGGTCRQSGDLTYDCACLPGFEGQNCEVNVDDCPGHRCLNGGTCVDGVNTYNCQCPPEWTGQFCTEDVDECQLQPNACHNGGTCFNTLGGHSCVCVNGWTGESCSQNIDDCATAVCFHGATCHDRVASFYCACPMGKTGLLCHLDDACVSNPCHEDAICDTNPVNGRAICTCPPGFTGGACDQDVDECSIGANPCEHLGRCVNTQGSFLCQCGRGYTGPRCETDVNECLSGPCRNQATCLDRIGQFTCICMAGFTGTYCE
# Experiments:
# human Notch-3 = target: T1, human Notch-3; test: ELISA: human Notch-3 coated at 2 ug/mL, Nanobody series 25 pM-2000 nM, detection by rabbit anti-VHH and DAMPO, OD 490 nm
# Protocol: (§1) After washing, the plate was blocked using 4% Marvel skimmed milk in PBS for 30 minutes on shaker. A concentration series of the Nanobodies in Table B-5 (25 pM to 2000 nM) was added in 100 microliter 2% Marvell/PBS and incubated for 1 h on shaker. After washing the Nanobodies were detected with 100 microliter 1:2500 R-anti-VHH (1:2500) in 2% Marvell/PBS and 100 microliter 1:5000 DAMPO in 2% Marvell/PBS for 1 h on shaker. PO was detected with 100 microliter OPD and stopped with 50 microliter H2SO4. Quantification was performed at 490 nm in a plate reader.
# [1] = target: T2, recombinant human Notch-1/Fc Chimera (R&D Systems Cat No 3647-TK) (human, UniProt P46531 19-526); test: ELISA: human Notch-1 coated at 2 ug/mL, Nanobody series 25 pM-2000 nM, detection by rabbit anti-VHH and DAMPO, OD 490 nm
# T2 construct: Bought reagent; also called rhNotch-1/hFc; rhNotch-1; not shown: human Fc (hFc)
# Protocol: as §1
# [2] = target: human Notch-2 (R&D Systems Cat #3735-NT-050), Notch-2-Fc fusion (human) (UniProt Q04721); test: ELISA: human Notch-2 coated at 2 ug/mL, Nanobody series 25 pM-2000 nM, detection by rabbit anti-VHH and DAMPO, OD 490 nm
# [3] = target: T2, recombinant human Notch-1/Fc Chimera …; test: ELISA: human Notch-1/Fc coated at 2 ug/mL, Nanobody series, detection by mouse anti-Myc tag and DAMPO, OD 490 nm
# Protocol: After washing the plate was blocked using 4% Marvel skimmed milk in PBS for 30 minutes on shaker. A concentration series of Nanobody (1 to 1000 nM) was added in 100 microliter 2% Marvell/PBS and incubated for 1 h on shaker. […] PO was detected with 100 microliter OPD and stopped with 50 microliter H2SO4. Quantification was performed at 490 nm in a plate reader.
# [4] = target: T3, rat Jagged-1 (rrJagged-1, R&D Systems Cat #599-JG) (rat, UniProt Q63722 34-1067); test: ELISA: rat Jagged-1 (rrJagged-1) coated at 2 ug/mL, Nanobody series, detection by mouse anti-Myc tag and DAMPO, OD 490 nm
# T3 construct: extracellular domain; Bought reagent; also called non-biotinylated Jagged-1; cold-jagged1
# Protocol: Two rounds of phage display selection were performed similarly as described above. Binding assays were performed. In short: Maxisorp plate was coated with 100 ul 2 ug/ml of rrJagged-1 (R&D systems) in PBS O/N at 4 C. After washing the plate 4× with PBS the plate was blocked with 4% Marvel in PBS for 30 minutes on shaker. A concentration series of Nanobody (1-1000 nM) was added in 100 ul 2% Marvell/PBS and incubate for 1 hour on shaker. After washing the plate 4× with PBS the Nanobodies were detected with 100 ul 1:5000 Mouse-anti-MycTag in 2% Marvell/PBS for 1 hour and 100 ul 1:5000 DAMPO in 2% Marvell/PBS for 1 hour. After washing the DAMPO was detected with 100 ul OPD, stopped with 50 ul H2SO4 and quantification was performed at 490 nm in a plate reader.
# [5] = target: T4, human DLL4 (rhDLL4, R&D Systems Cat #1506-D4-050) (human, UniProt Q9NR61 27-529); test: ELISA: rhDLL4 coated at 5 ug/mL, Nanobody series, detection by mouse anti-Myc tag (9E10) and DAMPO, OD 490 nm
# T4 construct: extracellular domain; Bought reagent
# Protocol: Two rounds of phage display selection were performed similarly as described above. Binding assays were performed. In short: Maxisorp plate was coated with 100 ul 5 ug/ml of rhDLL4 (R&D systems) in PBS O/N at 4° C. After washing the plate was blocked with 4% MPBS for 30 minutes hour on shaker. A concentration series of Nanobody (1-1000 nM) was added in 100 ul 2% Marvell/PBS and incubate for 1 hour on shaker. Nanobody was detected with 100 ul 1:5000 Mouse-anti-MycTag (9E10) in 2% Marvell/PBS and with 100 ul 1:5000 DAMPO in 2% Marvell/PBS for 1 hour on shaker. After washing PO was detected with 100 ul OPD and stopped with 50 ul H2SO4. Quantification was performed at 490 nm in a plate reader.
# T4 sequence (Q9NR61 27-529): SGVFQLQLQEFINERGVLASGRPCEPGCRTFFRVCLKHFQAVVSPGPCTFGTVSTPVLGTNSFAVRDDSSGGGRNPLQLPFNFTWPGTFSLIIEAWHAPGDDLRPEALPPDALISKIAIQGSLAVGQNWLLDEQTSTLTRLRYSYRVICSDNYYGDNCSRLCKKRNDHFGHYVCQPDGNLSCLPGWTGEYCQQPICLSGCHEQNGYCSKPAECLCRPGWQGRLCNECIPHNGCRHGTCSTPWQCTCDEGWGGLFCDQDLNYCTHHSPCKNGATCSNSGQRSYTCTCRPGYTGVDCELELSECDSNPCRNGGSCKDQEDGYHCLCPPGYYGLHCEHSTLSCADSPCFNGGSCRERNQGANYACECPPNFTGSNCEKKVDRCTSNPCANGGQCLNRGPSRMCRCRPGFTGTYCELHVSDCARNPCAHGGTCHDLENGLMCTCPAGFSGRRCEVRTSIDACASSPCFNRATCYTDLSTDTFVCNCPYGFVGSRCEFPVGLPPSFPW
binder,measurement,setting,value
"181B3 (VHH, detection there was with anti-VHH) VHH: EVQLVESGGGLVQAGGSLRLSCVVSGSILSINTMDWYRQAPGKQREWFAGLSDGGRANYADSVKDRFTIARDNAKNTVYLQMNSLKPGDTAIYYCAADLWDRGATTGRYWGQGTQVTVSS",binding result,human Notch-3,no binding (tested: 2000 nM)
same,binding result,[1],no binding (tested: 2000 nM)
same,EC50 (read off the curve),[2],2 nM
"181D2 (VHH, Nanobody against human Notch-2, 'generated as above') VHH: EVQLVESGGGLVQPGGSLRLSCAASGRINSMNWYRQAPGKEREWVASITSSGTTIYADSVKGRITISEDNAKNTVYLQMNSLKTEDTGVYYCAANLRNARGSYYGQGTQVTVSS",binding result,human Notch-3,no binding (tested: 2000 nM)
same,binding result,[1],no binding (tested: 2000 nM)
same,EC50 (read off the curve),[2],5 nM
"181D3 (VHH, Nanobody against human Notch-2, 'generated as above') VHH: EVQLVESGGGLVQAGGSLRLSCAASTNVSSFNTMSWYRQSPRKQREWVATITDGDNTHYADSVKGRFTTSRDNAKNLLYLQMNSLKPEDTAVYYCTGWRATSGGSYGQGTQVTVSS",binding result,human Notch-3,no binding (tested: 2000 nM)
same,binding result,[1],no binding (tested: 2000 nM)
same,EC50 (read off the curve),[2],5 nM
180C1 (VHH) VHH: EVQLVESGGDLVQPGGSLRLSCAASRTVFSISDMGWSRQAPGKERELVASISSDNYTVYADAAKGRFTISRDNSKNTVYLEMNSLKPDDTAVYYCRVVDPLRGKLYWGQGTQVTVSS,EC50 (read off the curve),[3],~20 nM
"180F8 (VHH, Nanobody against human Notch-1) VHH: EVQLVESGGDLVQPGGSLRLSCTTSGTVFSINDMGWSRQAPGKGRELVASISSEGTTIYADAAKGRFTISRDNSKNTVYLEMNSLKPDDTAVYYCRVVDPLRGKLYWGQGTQVTVSS",binding result,human Notch-3,no binding (tested: 2000 nM)
same,EC50 (read off the curve),[1],10 to 16 nM
180F10 (VHH) VHH: EVQLVESGGDLVQPGGSLRLSCAASATVFSNSDMGWSRQAPGKERELVASITTDGNTLYADAAKGRFAIYRDNSKNTVYLEMNSLKPDDTAVYYCRVVDLLRGKLYWGQGTQVTVSS,EC50 (read off the curve),[3],~5 nM
"178A7 (VHH, Nanobody against rat Jagged-1; not shown: C-terminal c-myc tag and His6 tag coded by vector pAX50) VHH: EVQLVESGGGLVQPGGSLRLSCATSGVIFSTAAMGWYRQAPGKSRVLVARMFSDGRTIYAESVKRRFTISRDNAKNTVYLQMNSLEPEDTAVYYCNALQFGAVYWGQGTQVTVSS",EC50 (read off the curve),[4],~20 nM
"179D12 (VHH, Nanobody against human DLL4; not shown: C-terminal c-myc tag and His6 tag coded by vector pAX50) VHH: EVQLVESGGGLVQAGGSLRLSCVASGDTSEIYDMGWFRQAPGKEREFVSSIHWGGRGTNYTDSVKGRFTISKDNAKNMVYLQMNSLKPEDTAVYYCAATRLIVYTPTGFRQYFDWGQGTQVTVSS",binding result,[5],binds
"179A10 (VHH, Nanobody against human DLL4; not shown: C-terminal c-myc tag and His6 tag coded by vector pAX50) VHH: EVQLVESGGGLVQAGGSLRLSCVASGDTSEIYDMGWFRQAPGKEREFVSSIHWGGRGTNYTDSVKGRFTISKDNAKNMVHLQMNSLKPEDTAVYYCAATRLIVYTPTGFRQYFDWGQGTQVTVSS",binding result,[5],binds
"179E6 (VHH, Nanobody against human DLL4; not shown: C-terminal c-myc tag and His6 tag coded by vector pAX50) VHH: EVQLVESGGGLVQAGGSLRLSCIASGDTSEIYDMGWFRQAPGKEREFVSSIHWRGRGTNYTDSVEGRFTISKDNAKNMVYLQMNSLKPEDTAVYYCAATRLIVYTPTGFRQYFDWGQGAQVTVSS",binding result,[5],binds
"179F6 (VHH, Nanobody against human DLL4; not shown: C-terminal c-myc tag and His6 tag coded by vector pAX50) VHH: EVQLVESGGGLVQAGGSLRLSCAASGSDFSGFLLGWYRQPPGKQRELIAQTTDGGRTNYGDSVKGRFTISRDNAKNTWYLQMDSLKPEDTGVYYCNTFPLTSWGQGTQVTVSS",binding result,[5],binds
"179F7 (VHH, Nanobody against human DLL4; not shown: C-terminal c-myc tag and His6 tag coded by vector pAX50) VHH: EVQLVESGGGLVQSGGSLSLSCAASGSVLRINDMGWYRQAPGKTREMVATITRSGVLNYTDSVKGRFTVSRDDAKNTVYLQMSSLKPEDTAVYSCFANIVIRSSGYFNRYWGQGTLVTVSS",binding result,[5],binds
"50C4 (VHH, Nanobody against human Notch-3) VHH: EVQLVESGGDLVQPGGSLRLSCAASGFTFSTYYMSWVRQAPGKGLEWVSGIYSDGSNTYYADSVKGRFTISRDNAKNTLYLQMNSLKSEDTAVYYCTRPVVVAGSPVSYEYDYIGQGTQVTVSS",EC50 (read off the curve),human Notch-3,~2 nM
"50H9 (VHH, Nanobody against human Notch-3) VHH: EVQLVESGGDLVQPGGSLRLSCAASGFTFSTYYMSWVRQAPGKGLEWVSGIYSDGSNTYYADSVKGRFTISRDNAKNTLYLQMNSLKSEDTAVYYCTRPVVVAGSPVSYEYDYIGQGTQVTVSS",EC50 (read off the curve),human Notch-3,~2 nM
180B3 (VHH) VHH: EVQLVESGGDLVQPGGSLRLSCAASGTVFSNNDMGWSRQAPGKERELVASFTSGGNTVYADAAKGRFTISRDNSKNTVYLEMNSLKPDDTAVYYCRVVDLLRGKLYWGQGTQVTVSS,EC50 (read off the curve),[3],~6 nM
180A4 (VHH) VHH: EVQLVESGGGLVQPGGSLRLSCAASGRTSSPIAMGWFRQAPGKEREFVSGITWSGAYTHYANSVKGRFTISRDSAKNTVYLQMNSLKPEDTAVYYCTTATNSTTGYDYWGQGTQVTVSS,EC50 (read off the curve),[3],~7 nM
180F4 (VHH) VHH: EVQLVESGGGLVQAGDSLRLSCAVSGGSFSSYTMGWVRQAPGKEREAVASIWRSGGNTYYADSVKGRFTVSRDNAKHTVYLQMNSLKPEDTAVYYCAAASFAPGSRGYDYWGQGTQVTVSS,EC50 (read off the curve),[3],~20 nM
"181E3 (VHH, Nanobody against human Notch-2, 'generated as above') VHH: EVQLVESGGGLVQPGGSLRLSCAASGFTFGDYAMNWVRQAPGKGLEWVSSISAGGYSTTYADSVKGRFTISRDNAKNTLYLQMNSLNPEDTAVYYCARGDWRYGSRGQGTQVTVSS",binding result,human Notch-3,no binding (tested: 2000 nM)
same,binding result,[1],no binding (tested: 2000 nM)
4H2 (VHH) VHH: EVQLVESGGGLVQAGGSLRLSCATSGFTFSRFDMSWFRQAPGKQREFIATIFSGGDTDYIDSVKGRFTISRDNAKNTVYLQMNSLKPEDTAVYYCCPLGIEYAWGQGTQVTVSS,binding result,human Notch-3,no binding (tested: 2000 nM)
same,binding result,[1],no binding (tested: 2000 nM)
